Consider 14 molecules from US20140289906A1, “Compositions Having Dicamba Decarboxylase Activity and Methods of Use” (priority 2013, published 2014).

Numbering of substitutions follows the chain as printed.

Sequences and labels used below:
B1: 18 (protein, listed as Legionella pneumophila)
chain: MAIVDFETHFITEACIDYLTQRQEVPKLVPELNGAYTMCFTPDVSLFHTSALMEELLSLNEQRLAIMDQAGVTIQVLSLTTINGIDSCPGDENKSTALAREVNDQLYSAIQKHPERFKGFASISPYDVKEGVKELERAISQLGFVGWLTHSNFGQDNYLDDKIYWPLLEAAESLNIPIYLHPNVPIMREFGKYGFALGGSALGFEFDTALCLMRMILGGVFDAFPKLKIMLGHLGETMPFLMERLDHLYRIPDLKPYRPSIQRIPSEVLRQNVYITTSGRFFVPALRYVLEVMGEDRVLFASDYPMESLLDATRFIQDSDLSNQTKQKIFSINAKNLNLI
B2: 20 (protein, listed as Legionella pneumophila)
chain: B1 chain with E31D, K112R, I163T, S173G, P256A
B3: 14 (protein, listed as Talaromyces marneffei)
chain: MARGKVSFEEAYEIPALADKSREQAALYIAPKDLDRYLSEIKSPTGGRLDISNKNGIGYTIYSLTVPGVQGIADKAKAEKHATDVNNWIYNEIKDHRDRMGAFAALSMHDPVQAGQELERCVKKLGFHGALLNNWQHAGTDGETYIFYDHPSYDVFWQKCVELDVPVYLHPSAPSGKVFDTFFKDRRYLIGPPISFAQDVALHTMGLITNGVFDRNPKLKLILGHLGERIPQDLWRTNHWLEDVERPLADSRGDTMSRKPLLYYFKNNIYVTTSGHFSTETVKFVCDYFGADRILFSVDSPYEKIEEGAGWYDKDKDNLTKALGGPQQYLDVGRENAKKLFKLGKYHDCDA
B4: 24 (protein)
chain: MALGKVVLEEAYERPNMKEKSNHEAGLYIAPNDRPRYMRQINDINQERLKLADAHGVGYTIISLTVPGIQGIFDKTEAERVATETNNWAAEQIKNHRDRLGAFACLSMHDPAQAANELRRCVQELGFHGALLCSFQHAGPDGETYLFYDQPKYDVFWKALTELDVPLYIHPAAPTGSILERLYAQRPALIGPPLSFANDVSLHTLGIISNGVFDRFPNLKIIIGHLGEHIPFDFWRIDHWFRDVKKPIADEEGRVMAQKSLYHYFKHNIWLTTSGHFSTPTLKYVVNEIGVDRVLFSVDYPYETTESGCNWWDHDKDAIVEAVGGVDNYYAIGRENAKKLLRLDKFHDSDAR
modifications: Aspergillus niger
B5: 17 (protein)
chain: MARGKIALEEAFEVKGMDEEIDAQAALYIAPKDVERYKRQIVSITDERLQLSDQNGIGYSILSLTVPGIQGITDKDKAEKRARDVNNYIHDQIKDHRDRLGAFAALSMHDPRQAGHELRRCVKELGFHGALLNDVQHTGEGDDDQPLFYDQPDYDEFWRVAVELDVPVYLHPAAPLRDTLIYKQSYEDRKYLVGPPQSYCNGVALHLMGIIVNGVFDRFPNLKVIVGHMGERIPFDFWRMDHWVKGVTRPLAEKNGDTVCQKEPLYYFKRNIYITTSGHFSTQNLRYLYEWLGDERMMFSVDFPYERMEHGCQWYDDDAEKIKEALGGRDGYLRVGRDNARRLFKLTKFKDCDAV
modifications: Aspergillus niger
B6: 15 (protein, listed as Metarhizium anisopliae)
chain: MAQEIAKSHETSTRFAGFAVLPMRDPEAAAKELERAVKKLGFVGALVDHKTAHGNGFCEGNEYDVLWRKAEQLAVPIYLHPSWPTEKQFQQAYAGNYSPTAAGTIGGAMFNWHSEVGHHVLRLYAAGVFDKFPKLKIIIGHFGEMIPYMLDRIREQDHRLGKTGRTFSEVYDENIWITTSGVWSLDPMRCILANTKIDHILYSVDYPFTMNERGLEWFQELEKSGLLSEEDLALIAYKNCEKLLGVKAPTQD
B7: 11 (protein)
chain: MALGKIALEEAFALPRFEEKTRWWASLFSVDPETHVKEITDINKLRIEHADKYGVGYQILSYTAPGVQDIWDPVEAQALAVEINDYIAEQIRDKPDRFGAFATLSMHNPQEAASELRRCVQTYGFKGALVNDTQRAGPDGDDMIFYDNASWDIFWQTCTELDVPLYLHPRNPTGTIYEKLWADRKWLVGPPLSFAQGVSLHVLGMVTNGVFDRHPNLQLIMGHLGEHVPFDMWRINHWFEDRKKLLGLAETCKKTIREYFAQNIWITTSGHFSTTTLNFCMAEVGVDRILFSIDYPFETFEDACVWFDGAELNLSDKAKIGRDNAARLFKLGAFRDYDAKVKA
modifications: Aspergillus niger
B8: 13 (protein, listed as Metarhizium acridum)
chain: MAHGKVALEEAFALPRLHEKTRWWASLFAVNPDKHAAEMTDITDIRINYMDKHGVGYTILSYTAPGVQDISDPKEAQALAVEINDYVAGAIKNHPDRFGAFATLSMRNPQEAATELKRCVTQYGFKGALVNDTQRAGEDDMIFYDGPEWDVFWSTVEELDVPFYLHPRNPTGSLYEKLWAKRKWLVGPPLSFAQGVSLHVLGMVTNGVFDRHPKLQVVLGHLGEHIPFDMWRINHWFEDVKKPLGLDCKKTIREYFQQNIWITTSGHFSTTTLQFCMAEVGADRILFSIDYPFECFADACDWYDGVPINLVDKAKIGRDNARRLFKLPEFKDSEKHVDA
B9: 23 (protein, listed as Aplysina aerophoba)
chain: MAIDIDARSQPGLETARRAMSRRDFLGGAAAFGITAAATTALPASTAAGEEEDLFLLGLEEHFATAELRRLNGIQFPQGTPRFDINDVGAGRIADMDAAGIDIQVLSALTPGAQNLPGAEGVAYARRLNSWVAHEVIPAYPGRFRAFATLPLSEPQAAADELEYAVRELGFLGCMTYGAVDGKFLDHADFVPVLARAETLDVPIYIHPNWASPQVMDTYYNGLGNEWVSRVLSGAGYGWHQEVALQCLRMIASGVFDRFPRLQIIVGHMGEGLPFFYWRFGDDLARITADTLEKPVQQYFHDNFWITTSAFFRDELLRLVLSVMGEDRVMFAVDYPFVSNKVGADWFRAVDLPRNVKEKIAHKNAERLLKIGPF
B10: 10 (protein, listed as Starkeya novella)
chain: MARKIALEEHFTTPELAGKYVARPTQSDALFADIERRLADFDELRLEMMDRAEIDLMVLSVTTPGVQGVRDTGEAIRLARGANDFLAREVQKRPSRYAGFAHLAMQDAEAAATELERAVRELGFRGALINGQTNGHYLDEDQYAPFWERVQELDVPVYLHPGNMADSPAMFAHRPELGGPIWAWTAETAAHALRLVFGGTFTRFPGAKVILGHMGETLPFLLWRLDSRREFDLGEKLAPDALPSAIIKRNIAVTTSGVCDPAPLVAALQALSDDNVMFSVDYPYEDPQLASKFIETAPIGEETRAKVCHGNAERLLGL
B11: 106 (protein, listed as Pyrococcus horikoshii)
chain: MAGMKFIKNLHVSKLVIDSMKALINGTIYTSFNPLKKVSGLVISHGKVIYAGDSEVAKKIVELSGGEIVDLKGKYVMPAFFDSHLHLDELGMSLEMVDLRGAKSIEELIQRLKRGKGRIIFGFGWDQDELGEWPTRKELNAIDKPVFIYRKCFHVAVANDKMLELLNLTPSKDFDEDTGIIKEKSLEEARKVINERVLTVEDYVYYIKRAQEHLLDLGVKSVSFMSVNEKALRALFYLEREGKLSINVFAYVTPEVLDKLESIGLGRFQGNRLTIAGVKLFTDGSLGARTALLSKPYSDDPSTSGQLVMEREELIRITEKARSLGLDVAIHAIGDKALDVALDVFETTGFPGRIEHASLVRDDQLERVKNLKVRLSVQPHFIISDWWIVERVGEERVKWVYRFKDLMKVAELGFSTDSPIEPADPWLTVDAAVNRGKGKVKLYELTKDQALDIKDALHSYTYGSARVSLASDIGKLEPGFKAEYIILDRDPLVVK
B12: 9 (protein, listed as Octadecabacter antarcticus)
chain: MATPKITFEEHFMAPGFEKHSEAFLKLIPRDQAEILTRRLGDFDGERIETMDRGGITRSIISLTGPGTQGEAVEKAVSAAQGANDFLAEKISKKPDRLGGLATLPMHDPDAAARELNRAVNDLGLQGCLVNTHTHGAYYEGTDYDPFWAEVEKLGVPFYLHPSNAYVTPHVLGGMPVLQGATWGWGVETGSHALRILFGGVFDRFPDVKLVLGHMGEALPFLRWRYDSRFGAYPMGVSLDRAPSAYFGSNILITTSGVCSHPSLIGAIGEMGADAVMFSVDYPYEDTDLAVEFIETAPLEDATRVKICHDNAARLFGMPTLAAKEGA
B13: 12 (protein, listed as Zymoseptoria tritici)
chain: MALGKVAFEEAFALPRFKERTTWWAGLFAVDPEKHTREINDINKLRIEKMDQFGVGYTLLSYTAPGVQDVWQQEEADALAREVNDHVAAEIKGHEDRLGALATLSMHDPQTASAELRRCIKDYGFKGALVNDTQRNDESGTGMIFYDGPEWDVFWSTVQELDVPFYLHPRNPTGVFMEKLWAPRKWLVGPPLSFAQGVSLHLLGMVTNGTFDRFPNLQVIIGHLGEHLPFDLWRINHWFEDIKKPLGLDCKKTIREYFNENIWITTSGHFSTPTLEYCIKEIGAERILFSIDYPFEKFEDACDWYDGVELDGPDTVKKIGRENAKKLFKLGAFKDDSA
B14: 107 (protein, listed as Rhodopseudomonas palustris)
chain: MAIIDIHGHYTTAPKALEDWRNRQIAGIKDPSVMPKVSELKISDDELQASIIENQLKKMQERGSDLTVFSPRASFMAHHIGDFNVSSTWAAICNELCYRVSQLFPDNFIGAAMLPQSPGVDPKTCIPELEKCVKEYGFVAINLNPDPSGGHWTSPPLTDRIWYPIYEKMVELEIPAMIHVSTSCNTCFHTTGAHYLNADTTAFMQCVAGDLFKDFPELKFVIPHGGGAVPYHWGRFRGLAQEMKKPLLEDHVLNNIFFDTCVYHQPGIDLLNTVIPVDNVLFASEMIGAVRGIDPRTGFYYDDTKRYIEASTILTPEEKQQIYEGNARRVYPRLDAALKAKGK

One data set can be described thus: 14C assay: 14CO2 capture from [14C]-carboxyl-labeled dicamba with IPTG-induced recombinant E. coli cells. Particulars: IPTG-induced recombinant E. coli cells; 14CO2 from [14C]-carboxyl-labeled dicamba.
On to B1, for which the “Dicamba Decarboxylase Activity” value is “Low”.
On the same count and under the same terms, the result for B2 reads “Low”.
On to B3, for which the “Dicamba Decarboxylase Activity” value was “Low”.
B4: the “Dicamba Decarboxylase Activity” value is reported as “Low”.
The same measure, in the same setting: the result for B5 reads “Low”.
For B6, the “Dicamba Decarboxylase Activity” value is on record as “Low”.
Take B7: the “Dicamba Decarboxylase Activity” value is recorded as “Low”.
Same read-out and setting: the result for B8 reads “No”; that for B9, “Low”.
B10: the “Dicamba Decarboxylase Activity” value is on record as “Low”.
With B11, the “Dicamba Decarboxylase Activity” value is “No”.
For B12, the “Dicamba Decarboxylase Activity” value is on record as “No”.
Take B13: the “Dicamba Decarboxylase Activity” value was “No”.
Same read-out and setting: the result for B14 reads “No”.

The data set is the same for the next values; noted with them: dicamba decarboxylation activity.
B1: the “Enzymatic Detection level” value is reported as “Low”.
On to B2, for which the “Enzymatic Detection level” value is given as “Low”.
Still for that read-out and setting: the result for B3 reads “Low”; that for B4, “Low”.
Same read-out and setting: the result for B5 reads “Low”; that for B6, “Low”; that for B7, “Low”.
The same measure, in the same setting: the result for B8 reads “No”.
For the molecule B9, the “Enzymatic Detection level” value is given as “Low”.
Turning to B10, the “Enzymatic Detection level” value is on record as “Low”.
For B11, the “Enzymatic Detection level” value was “No”.
Same read-out and setting: the result for B12 reads “No”; that for B13, “No”; that for B14, “No”.
